B3: MAS-related GPR family member X2 (MRGPRX2), endogenous on ROSA mast cells (receptor, human (endogenous in ROSA), UniProt Q96LB1 1-330, looked up)
chain: MDPTTPAWGTESTTVNGNDQALLLLCGKETLIPVFLILFIALVGLVGNGFVLWLLGFRMRRNAFSVYVLSLAGADFLFLCFQIINCLVYLSNFFCSISINFPSFFTTVMTCAYLAGLSMLSTVSTERCLSVLWPIWYRCRRPRHLSAVVCVLLWALSLLLSILEGKFCGFLFSDGDSGWCQTFDFITAAWLIFLFMVLCGSSLALLVRILCGSRGLPLTRLYLTILLTVLVFLLCGLPFGIQWFLILWIWKDSDVLFCHIHPVSVVLSSLNSSANPIIYFFVGSFRKQWRLQQPILKLALQRALQDIAEVDHSEGCFRQGTPEMSRSSLV
notes: MAS-related GPR family member X2 (MRGPRX2), a GPCR, endogenously expressed at high levels on the ROSA mast cell line; source: endogenous, on ROSA mast cells (immortalized mast cell line)
B4: human N-terminal FLAG-tagged MRGPRX2, on transfected HEK293T cells (receptor, UniProt Q96LB1 1-330, looked up)
chain: MDPTTPAWGTESTTVNGNDQALLLLCGKETLIPVFLILFIALVGLVGNGFVLWLLGFRMRRNAFSVYVLSLAGADFLFLCFQIINCLVYLSNFFCSISINFPSFFTTVMTCAYLAGLSMLSTVSTERCLSVLWPIWYRCRRPRHLSAVVCVLLWALSLLLSILEGKFCGFLFSDGDSGWCQTFDFITAAWLIFLFMVLCGSSLALLVRILCGSRGLPLTRLYLTILLTVLVFLLCGLPFGIQWFLILWIWKDSDVLFCHIHPVSVVLSSLNSSANPIIYFFVGSFRKQWRLQQPILKLALQRALQDIAEVDHSEGCFRQGTPEMSRSSLV
notes: MRGPRX2, human, N-terminal FLAG-tagged, in a pcDNA3.1 expression vector; also called FLAG-MRGPRX2; wild type MRGPRX2; source: HEK293T, transiently transfected (pcDNA3.1), on cells; not shown: FLAG, N-terminal, kept

How the values were obtained:
Conditions in all cases: one partner purified
[1] = target: B3; test: flow cytometry on cells; dose response of nanobody on ROSA mast cells (100,000 cells per well), 30 min at 4 °C; anti-human IgG Fc-AF488; MFI; for Kd the non-specific signal was the MFI with Nb 60
[2] = target: B4; test: flow cytometry on cells; monomeric nanobody or variant with V5 tag, 1-2 h at 4 °C, on HEK293T cells transfected with FLAG-MRGPRX2, FLAG-MC4R, FLAG-CXCR3 or empty vector; HBS + 0.1% BSA + 2 mM calcium; anti-V5-APC
[3] = target: T1, Nanobody Sim9877 (rank 5), human IgG1 Fc fusion; test: flow cytometry on cells; dose response of nanobody on ROSA mast cells (100,000 cells per well), 30 min at 4 °C; anti-human IgG Fc-AF488; MFI; for Kd the non-specific signal was the MFI with Nb 60
T1 construct: (GGS)3 linker between the nanobody and the Fc; cloned into pFUSE-CHIg-hG1 with H435A in the Fc; also called Nb Sim9877; source: Expi293F, transiently transfected, purified (protein A); not shown: Fc (human IgG1, H435A), C-terminal, kept

[4] = target: T2, Nanobody Sim8619 (rank 1), human IgG1 Fc fusion; test: as above
T2 construct: (GGS)3 linker between the nanobody and the Fc; cloned into pFUSE-CHIg-hG1 with H435A in the Fc; also called Nb Sim 8619; source: Expi293F, transiently transfected, purified (protein A); not shown: Fc (human IgG1, H435A), C-terminal, kept

[5] = target: T3, Nanobody Sim4784 (rank 7), human IgG1 Fc fusion; test: as above
T3 construct: (GGS)3 linker between the nanobody and the Fc; cloned into pFUSE-CHIg-hG1 with H435A in the Fc; source: Expi293F, transiently transfected, purified (protein A); not shown: Fc (human IgG1, H435A), C-terminal, kept

[6] = target: T1, Nanobody Sim9877 (rank 5), human IgG1 …; test: flow cytometry on cells; nanobody-Fc at the indicated concentrations, 1 h at 4 °C, on HEK293T cells transfected with FLAG-MRGPRX2, MRGPRX2 E164A D184A or empty vector; HBS + 2% FBS + 0.05% BSA; anti-human Fc-AF647; non-specific signal from empty-vector cells
[7] = target: T2, Nanobody Sim8619 (rank 1), human IgG1 …; test: as above
[8] = target: T3, Nanobody Sim4784 (rank 7), human IgG1 …; test: as above
[9] = target: T4, FLAG-MC4R, on transfected HEK293T cells (Homo sapiens (Human)., UniProt P32245); test: flow cytometry on cells; monomeric nanobody or variant with V5 tag, 1-2 h at 4 °C, on HEK293T cells transfected with FLAG-MRGPRX2, FLAG-MC4R, FLAG-CXCR3 or empty vector; HBS + 0.1% BSA + 2 mM calcium; anti-V5-APC
T4 construct: source: HEK293T, transiently transfected, on cells
T4 sequence (P32245 whole entry): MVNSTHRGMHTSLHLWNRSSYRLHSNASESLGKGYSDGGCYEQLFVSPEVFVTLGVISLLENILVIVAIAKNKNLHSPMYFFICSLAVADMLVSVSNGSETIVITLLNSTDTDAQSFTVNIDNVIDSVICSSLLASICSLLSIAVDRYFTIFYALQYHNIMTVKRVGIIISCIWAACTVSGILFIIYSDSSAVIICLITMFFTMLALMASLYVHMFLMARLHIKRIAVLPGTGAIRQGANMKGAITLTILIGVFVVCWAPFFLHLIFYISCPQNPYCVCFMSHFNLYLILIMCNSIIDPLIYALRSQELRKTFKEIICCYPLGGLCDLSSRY

B1: Nanobody Sim8619 (rank 1) with an R102A mutation (VHH)
VHH: QVQLQESGGGLVQAGGSLRLSCAASGSIFYIRGMGWYRQAPGKERELVAGIDVGAITYYADSVKGRFTISRDNAKNTVYLQMNSLKPEDTAVYYCAVWAYTAAGYTTVYAYWGQGTQVTVSS
notes: as the nanobody of m5 (Sim8619); the ROSA cell assay is told only for Fc fusions, nanobody variants are told as monomers from E. coli; also called R102A mutant; Sim8619 R102A
With B1 the EC50 [1] was 210 nM.

B2: Nanobody Sim8619 (rank 1), monomeric (monovalent format) (VHH)
VHH: QVQLQESGGGLVQAGGSLRLSCAASGSIFYIRGMGWYRQAPGKERELVAGIDVGAITYYADSVKGRFTISRDNAKNTVYLQMNSLKPEDTAVYYCAVWAYTRAGYTTVYAYWGQGTQVTVSS
notes: source: E. coli BL21-DE3 (pET-26b), purified (protein A, Ni-NTA); not shown: V5, C-terminal, kept
B2: binds [2].

Binder B3 has a Kd [3] of 20 nM, a Kd [4] of 100 nM and a Kd [5] of 50 nM.

Work on B4 yielded a Kd [6] of 160 nM, a Kd [7] of 200 nM and a Kd [8] of 80 nM.

B5: Nanobody Sim9877 (rank 5), monomeric (monovalent format) (VHH)
VHH: QVQLQESGGGLVQAGGSLRLSCAASGYISSFPVMGWYRQAPGKERELVAAIGSGGITYYADSVKGRFTISRDNAKNTVYLQMNSLKPEDTAVYYCAVAGYNIGSYYYWGQGTQVTVSS
notes: as for B2
B5: binds [2].

B6: Nanobody Sim4784 (rank 7), monomeric (monovalent format) (VHH)
VHH: QVQLQESGGGLVQAGGSLRLSCAASGTISPPTYMGWYRQAPGKERELVASIGAGSNTNYADSVKGRFTISRDNAKNTVYLQMNSLKPEDTAVYYCAAIFGRLWYHLYWGQGTQVTVSS
notes: as for B2
B6: binds [9]; binds [2].

Source: paper PMC13315262, “In silico discovery of nanobody binders to a G-protein coupled receptor using AlphaFold-Multimer” (Nature Communications, 2026)
